According to patent publication US20200207835A1, “SRCP1-BASED THERAPY FOR DISEASES ASSOCIATED WITH PROTEIN AGGREGATION” (THE MEDICAL COLLEGE OF WISCONSIN, INC., priority 2017, published 2020):

Legend:
[1] = tested on: wild-type or mutant α-synuclein; experiment: α-synuclein levels in HEK293 cells (western blot); format: cell-based, human; details: HEK293, 48 hours, overexpression of SRCP1
Procedure: HEK 293 cells were transfected with either wild-type or mutant α-synuclein in the presence or absence of SRCP1. Cells were collected 48 hours later and analyzed by SDS-PAGE and western blot.

^GFPHtt^ex1Q74 = experiment: GFPHttex1Q74 aggregation in transfected HEK293 cells (fluorescent/confocal microscopy, western blot, filter trap assay); format: cell-based, human
^GFPHtt^ex1Q74, sequence (P42858 with tags, fused parts or gaps limits assumed): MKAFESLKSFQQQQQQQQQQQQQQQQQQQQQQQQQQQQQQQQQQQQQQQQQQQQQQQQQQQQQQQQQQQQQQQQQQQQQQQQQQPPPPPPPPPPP
Procedure: Transfections were performed with Lipofectamine 2000 (Invitrogen by ThermoFisher Scientific) and adapted from the manufacturer's instructions. Briefly, cells were plated on either 12-well or 6-well plates and transfected at 50-70% confluency. For 12-well transfections, 0.833 μg of DNA per well was mixed with 50 μl of OptiMEM (Gibco by Life Technologies) media and incubated for 5 minutes at room temperature. Lipofectamine 2000 in a 2:1, μl of lipofectamine: μg DNA ratio was mixed with 50 μl of OptiMEM media and incubated for 5 minutes at room temperature. DNA and Lipofectamine were mixed and incubated for 15 minutes at room temperature. Fresh media was added to cells prior to the addition of DNA and lipofectamine. For 6-well transfections, the same protocol is followed except that 1.25 μg of DNA per well and 100 μl of OptiMEM for dilution was used. Media was changed 24 hours post-transfection and cells were harvested 48 hours post-transfection. Prior to harvesting, HEK293 cells were washed three times with ice-cold 1×PBS. Samples were then lysed with either 150 μl of ice-cold NETN (with protease inhibitor) or 1× Laemmli Buffer and sonicated twice for 5-8 seconds.
For proteasome inhibition, 30 hours post-transfection cells would be replenished with DMEM containing either DMSO or 10 μM MG132 (Sigma-Aldrich) for 18 hours. Prior to harvesting, HEK293 cells were washed three times with ice-cold 1×PBS and imaged by fluorescent microscopy with a 20× objective using the Evos FL Auto Imaging System. Cells were then lysed with either 150 μl of ice-cold NETN (with protease inhibitor) or 1× Laemmli Buffer and sonicated twice for 5-8 seconds.
For autophagy inhibition, 24 hours post-transfection cells would be replenished with DMEM and treated with either DMSO or 5 mM 3-Methyladenine (Sigma-Aldrich) for an additional 24 hours. Prior to harvesting, HEK293 cells were washed three times with ice-cold 1×PBS and imaged by fluorescent microscopy with a 20× objective using the Evos FL Auto Imaging System. Cells were then lysed with either 150 μl of ice-cold NETN (with protease inhibitor) or 1× Laemmli Buffer and sonicated twice for 5-8 seconds.
For HEK293s′, slides were prepared by placing coverslips in 6-well plates and incubating with poly-L-lysine hydrobromide (Sigma-Aldrich) for an hour at room temperature. Coverslips were rinsed with 1×PBS three times prior to plating HEK293 cells. HEK293 cells were then transfected and fixed by incubation in 4% paraformaldehyde for 20 minutes at room temperature. Coverslips were mounted with ProLong Gold Antifade reagent and imaged with a 20× objective using the Evos FL Auto Imaging System or with a 40× objective using the Leica TCS SP5 Confocal Microscope System. For confocal, Z-stack images were obtained at […] intervals at 1024×1024 pixel resolution and merged using Fiji.
Following sonication, lysates were subjected to BCA protein assay (ThermoFisher Scientific) and prepared for loading by the addition of 4× laemmli buffer and boiling for four minutes. Samples then loaded on SDS-polyacrylamide gels, ran at 175 V, and transferred onto an Immuno-blot PVDF membrane (Biorad) overnight at 30 V. Membranes were blocked in 5% milk in TBS with 0.1% Tween (TBST) and incubated in primary antibody overnight at 4° C. Following primary, membranes were washed for 10 minutes at room temperature three times with TBST and incubated in secondary for an hour at room temperature. Membranes were then washed for 10 minutes at room temperature three times with TBST and then incubated in buffer for enhanced chemiluminescence (50 mM Na2HPO4; 50 mM Na2CO3; 10 mM NaBO3.4H2O; 250 mM luminol; 90 mM coumaric acid).
For HEK293 lysates, BCA protein assay was used to determine protein concentration. […]

[2] = HEK293, co-expression, fluorescent microscopy

B1: SRCP1: Dictyostelium discoideum serine-rich chaperone protein 1 (SEQ ID NO:2), expressed in cells as RFP-tagged construct (protein)
chain: MTILSTFTSFSNPPKLNKSSFSSSTGSSLSMGSNSFAWGGGWGGFGGPKGGSFNVDIAGNLIWGVYGFIRGGVGLVKWRGLQKGCKQP
modifications: RFP tag; Dictyostelium discoideum AX4
α-synuclein levels [1]: results in a reduction of α-synuclein | polyQ aggregation under proteasome inhibition (^GFPHtt^ex1Q74; HEK293, SRCP1 in the presence of proteasome inhibition): prevented polyQ aggregation | levels of monomeric, soluble GFPHttex1Q74 (^GFPHtt^ex1Q74; HEK293, co-expression): no effect on the levels of monomeric, soluble | soluble GFPHttex1Q74 levels under autophagy inhibition (^GFPHtt^ex1Q74; HEK293, co-expression of RFPSRCP1 plus 5 mM 3-MA): did not lead to a significant increase in soluble | soluble GFPHttex1Q74 under proteasome inhibition (^GFPHtt^ex1Q74; HEK293, co-expression of RFPSRCP1 plus proteasome inhibitor, compared to proteasome inhibition alone): even further increase in the amount of soluble | number of GFPHttex1Q74 puncta (^GFPHtt^ex1Q74; [2]): significantly decreases the number of puncta | size of GFPHttex1Q74 puncta (^GFPHtt^ex1Q74; [2]): significantly decreases ^GFPHtt^ex1Q74 puncta size | amount of GFPHttex1Q74 aggregates (^GFPHtt^ex1Q74; HEK293, co-expression, SDS-PAGE, filter trap assay, confocal microscopy): greatly reduced the amount of ^GFPHtt^ex1Q74 aggregates
